Among the data in paper PMC9352680, “A comprehensive thermodynamic model for RNA binding by the Saccharomyces cerevisiae Pumilio protein PUF4” are Kd values, retold here.

Where a chain is given by its changes, count along the chain named. Names may count otherwise. Some results are limits rather than exact numbers.

T1: PUF4 RNA-binding domain (Saccharomyces cerevisiae, UniProt P25339 537-888)
T1 sequence: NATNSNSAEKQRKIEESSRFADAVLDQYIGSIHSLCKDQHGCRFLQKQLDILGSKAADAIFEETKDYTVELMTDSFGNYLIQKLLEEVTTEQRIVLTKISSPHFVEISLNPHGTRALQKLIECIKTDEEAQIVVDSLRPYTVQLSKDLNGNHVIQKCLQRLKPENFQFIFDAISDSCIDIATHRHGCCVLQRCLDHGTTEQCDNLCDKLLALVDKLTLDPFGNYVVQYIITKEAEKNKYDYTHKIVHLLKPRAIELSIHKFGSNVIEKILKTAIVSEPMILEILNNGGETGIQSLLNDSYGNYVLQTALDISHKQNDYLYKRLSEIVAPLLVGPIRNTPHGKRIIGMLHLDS

B1: Id_ii_S4_P4E.3_K4.2_C4.2_[C-2G]_H4.2_A4.1_F4.1_T4.2_[G10A] (ssRNA)
RNA: UUUGACAACUGAUCGUUCUUUCUGUUAUAUAUUAAUUUCUUUCUCGAUCAGUUGUCUUU
B2: Id_ii_S4_P4E.3_K4.2_C4.2_[T-1A]_H4.2_A4.1_F4.1_T4.2_[G10C]_[T11A] (ssRNA)
RNA: B1 RNA with G24C, U25A, A35C, U36A
B3: Id_ii_S4_P4E.3_K4.2_C4.2_[C-2T]_[T-1G]_H4.2_A4.1_F4.1_T4.2_[G10A]_[T11C] (ssRNA)
RNA: B1 RNA with G24U, U25G, U36C
B4: Id_ii_S4_P4E.3_K4.2_C4.2_H4.2_A4.1_F4.1_T4.2_[G10A]_[T11C] (ssRNA)
RNA: B1 RNA with G24C, U36C
B5: Id_ii_S4_P4E.3_K4.2_C4.2_[C-2A]_[T-1C]_H4.2_A4.1_F4.1_T4.2_[G10T]_[T11C] (ssRNA)
RNA: B1 RNA with G24A, U25C, A35U, U36C
B6: Id_ii_S4_P4E.3_K4.2_C4.2_[C-2T]_[T-1G]_H4.2_A4.1_F4.1_T4.2_[G10T]_[T11C] (ssRNA)
RNA: B1 RNA with G24U, U25G, A35U, U36C
B7: Id_ii_S4_P4E.3_K4.2_C4.2_[T-1G]_H4.2_A4.1_F4.1_T4.2_[G10A] (ssRNA)
RNA: B1 RNA with G24C, U25G
B8: Id_ii_S4_P4E.3_K4.2_C4.2_[C-2A]_[T-1A]_H4.2_A4.1_F4.1_T4.2_[G10C]_[T11G] (ssRNA)
RNA: B1 RNA with G24A, U25A, A35C, U36G
B9: Id_ii_S4_P4E.4_K4.3_C4.2_[C-2G]_[T-1C]_H4.3_A4.1_F4.1_T4.2_[G10C]_[T11G] (ssRNA)
RNA: B1 RNA with U25C, U26A, A27C, U28A, A29C, A35C, U36G
B10: Id_ii_S4_P4E.3_K4.2_C4.2_[T-1C]_H4.2_A4.1_F4.1_T4.2_[G10A] (ssRNA)
RNA: B1 RNA with G24C, U25C
B11: If_S4_P4E.3_K4.2_C4.2_H4.2_A4.1_F4.1_T4.2 (ssRNA)
RNA: B1 RNA with G24C, A35G
B12: Id_ii_S4_P4E.3_K4.2_C4.2_[C-2T]_[T-1C]_H4.2_A4.1_F4.1_T4.2_[G10T]_[T11C] (ssRNA)
RNA: B1 RNA with G24U, U25C, A35U, U36C
B13: Id_ii_S4_P4E.3_K4.2_C4.2_[C-2T]_[T-1C]_H4.2_A4.1_F4.1_T4.2_[G10T]_[T11A] (ssRNA)
RNA: B1 RNA with G24U, U25C, A35U, U36A
B14: Id_ii_S4_P4E.3_K4.2_C4.2_[C-2T]_H4.2_A4.1_F4.1_T4.2_[G10T]_[T11A] (ssRNA)
RNA: B1 RNA with G24U, A35U, U36A
B15: Id_ii_S4_P4E.3_K4.2_C4.2_H4.2_A4.1_F4.1_T4.2_[G10A] (ssRNA)
RNA: B1 RNA with G24C
B16: Id_ii_S4_P4E.3_K4.2_C4.2_[C-2T]_[T-1C]_H4.2_A4.1_F4.1_T4.2_[G10C]_[T11A] (ssRNA)
RNA: B1 RNA with G24U, U25C, A35C, U36A
B17: Id_ii_S4_P4E.3_K4.2_C4.2_H4.2_A4.1_F4.1_T4.2_[T11C] (ssRNA)
RNA: B1 RNA with G24C, A35G, U36C
B18: Id_ii_S4_P4E.3_K4.2_C4.2_[C-2T]_H4.2_A4.1_F4.1_T4.2_[G10T]_[T11G] (ssRNA)
RNA: B1 RNA with G24U, A35U, U36G
B19: Id_ii_S4_P4E.3_K4.2_C4.2_[T-1G]_H4.2_A4.1_F4.1_T4.2 (ssRNA)
RNA: B1 RNA with G24C, U25G, A35G
B20: Id_ii_S4_P4E.3_K4.2_C4.2_H4.2_A4.1_F4.1_T4.2_[G10C] (ssRNA)
RNA: B1 RNA with G24C, A35C
B21: Id_ii_S4_P4E.3_K4.2_C4.2_H4.2_A4.1_F4.1_T4.2_[G10T]_[T11C] (ssRNA)
RNA: B1 RNA with G24C, A35U, U36C
B22: Id_ii_S4_P4E.3_K4.2_C4.2_[T-1G]_H4.2_A4.1_F4.1_T4.2_[G10T]_[T11C] (ssRNA)
RNA: B1 RNA with G24C, U25G, A35U, U36C
B23: Id_ii_S4_P4E.3_K4.2_C4.2_[T-1C]_H4.2_A4.1_F4.1_T4.2_[G10C]_[T11G] (ssRNA)
RNA: B1 RNA with G24C, U25C, A35C, U36G
B24: Id_ii_S4_P4E.4_K4.3_C4.2_[C-2G]_H4.3_A4.1_F4.1_T4.2_[G10T]_[T11A] (ssRNA)
RNA: B1 RNA with U26A, A27C, U28A, A29C, A35U, U36A
B25: Id_ii_S4_P4E.3_K4.2_C4.2_[C-2T]_[T-1A]_H4.2_A4.1_F4.1_T4.2_[G10A]_[T11A] (ssRNA)
RNA: B1 RNA with G24U, U25A, U36A
B26: Id_ii_S4_P4E.3_K4.2_C4.2_[C-2T]_H4.2_A4.1_F4.1_T4.2_[G10C]_[T11G] (ssRNA)
RNA: B1 RNA with G24U, A35C, U36G
B27: Id_ii_S4_P4E.3_K4.2_C4.2_[C-2T]_[T-1A]_H4.2_A4.1_F4.1_T4.2_[G10C]_[T11G] (ssRNA)
RNA: B1 RNA with G24U, U25A, A35C, U36G
B28: Id_ii_S4_P4E.3_K4.2_C4.2_[C-2A]_[T-1C]_H4.2_A4.1_F4.1_T4.2_[G10T]_[T11A] (ssRNA)
RNA: B1 RNA with G24A, U25C, A35U, U36A
B29: Id_ii_S4_P4E.3_K4.2_C4.2_[C-2A]_[T-1A]_H4.2_A4.1_F4.1_T4.2_[G10C]_[T11C] (ssRNA)
RNA: B1 RNA with G24A, U25A, A35C, U36C
B30: Id_ii_S4_P4E.3_K4.2_C4.2_[C-2T]_H4.2_A4.1_F4.1_T4.2_[G10C]_[T11C] (ssRNA)
RNA: B1 RNA with G24U, A35C, U36C
B31: Id_ii_S4_P4E.3_K4.2_C4.2_[C-2T]_[T-1C]_H4.2_A4.1_F4.1_T4.2_[G10A] (ssRNA)
RNA: B1 RNA with G24U, U25C
B32: Id_ii_S4_P4E.3_K4.2_C4.2_[C-2T]_[T-1G]_H4.2_A4.1_F4.1_T4.2_[G10T] (ssRNA)
RNA: B1 RNA with G24U, U25G, A35U
B33: Id_ii_S4_P4E.4_K4.3_C4.2_[C-2G]_[T-1C]_H4.3_A4.1_F4.1_T4.2_[G10T]_[T11A] (ssRNA)
RNA: B1 RNA with U25C, U26A, A27C, U28A, A29C, A35U, U36A
B34: Id_ii_S4_P4E.4_K4.3_C4.2_[C-2G]_H4.3_A4.1_F4.1_T4.2_[G10C]_[T11C] (ssRNA)
RNA: B1 RNA with U26A, A27C, U28A, A29C, A35C, U36C
B35: Id_ii_S4_P4E.3_K4.2_C4.2_[C-2A]_[T-1A]_H4.2_A4.1_F4.1_T4.2_[G10T]_[T11C] (ssRNA)
RNA: B1 RNA with G24A, U25A, A35U, U36C
B36: Id_ii_S4_P4E.3_K4.2_C4.2_[C-2A]_H4.2_A4.1_F4.1_T4.2_[G10C]_[T11A] (ssRNA)
RNA: B1 RNA with G24A, A35C, U36A

In the series the target is T1, PUF4 RNA-binding domain. Briefly: Mg; RNA-MaP; 20 mM Na-HEPES pH 7.4, 30 mM KOAc, 0.75 mM MgCl2, 0.1% Tween-20, 5% glycerol, 0.1 mg/mL BSA, 2 mM DTT; 25 C; 0.0125-409.6 nM protein. Particulars: tags: N-His6-TEV cleaved; C-SNAP kept, Cy3B-labelled; label: tethered on chip by stalled RNA polymerase.
As for UCUCUUUGUAUAAUUAUCUCUU (ssRNA) [Ia_S1_P5E.1_K5.1_C5.1_H5.1_A5.1_[T6A]_F5.1_T5.1], the Kd (usually the constant that tells how readily two partners part at equilibrium) is 5.23 nM.

UCUCUUUUUAUUCUUAUCUCUU (ssRNA) [Ib_S1_P5E.1_K5.1_C5.1_H5.1_[G2T]_A5.1_[A7C]_F5.1_T5.1] had a Kd of over 2300 nM.

The molecule UCUCUUUCUAUUUUUAUCUCUU (ssRNA) [Ib_S1_P5E.1_K5.1_C5.1_H5.1_[G2C]_A5.1_[A7T]_F5.1_T5.1] returned a Kd of over 2300 nM.

Turning to UCUCUUUAUAUUGUUAUCUCUU (ssRNA) [Ib_S1_P5E.1_K5.1_C5.1_H5.1_[G2A]_A5.1_[A7G]_F5.1_T5.1], binding was put at a Kd of 846 nM.

As for B1, the Kd came to 62 nM.

Take B2: the dissociation constant Kd turned out to be 23 nM.

B3: the affinity, expressed as Kd, was 3.87 nM.

Turning to B4, the Kd was found to be 15.9 nM.

Turning to B5, the Kd was 6.68 nM.

B6 returned a Kd of 3.99 nM.

As for B7, the Kd was 12.4 nM.

Turning to B8, binding was characterised by a dissociation constant (Kd) of 189 nM.

With B9, binding was characterised by a dissociation constant (Kd) of 2000 nM.

Molecule B10 had a Kd of 4.86 nM.

As for B11, binding was put at a Kd of 8.97 nM.

B12: binding was characterised by a dissociation constant (Kd) of 5.07 nM.

The molecule B13 showed a Kd of 12 nM.

Molecule B14 showed a Kd of 25.9 nM.

For B15, the affinity, expressed as Kd, was 10.8 nM.

Molecule B16 gave a Kd of 12.6 nM.

In turn, B17 came in with a Kd of 5.07 nM.

Consider B18, for which binding was put at a Kd of 8.62 nM.

B19 yielded an equilibrium dissociation constant (Kd) of 8.91 nM.

As for B20, the Kd turned out to be 5.15 nM.

In turn, B21 came in with a dissociation constant (Kd) of 6.46 nM.

B22 registered a Kd of 13.1 nM.

Molecule B23 returned a Kd of 9.21 nM.

B24: the affinity, expressed as Kd, was 0.647 nM.

In turn, B25 registered a Kd of 42 nM.

Turning to B26, binding was characterised by a dissociation constant (Kd) of 10.1 nM.

On to B27, for which the Kd is 28.4 nM.

The molecule B28 came in with a Kd of 24.6 nM.

For the molecule B29, the Kd was determined as 47.7 nM.

Molecule B30 returned a Kd of 9.36 nM.

Molecule B31 came in with a Kd of 10.2 nM.

Take B32: the equilibrium dissociation constant (Kd) amounted to 1.83 nM.

With B33, the Kd is 28.5 nM.

B34 showed a Kd of 1.02 nM.

The molecule B35 had a Kd of 39.7 nM.

In turn, B36 returned a Kd of 12.2 nM.

The molecule UCUCUUUUUAUUUUUAUCUCUU (ssRNA) [Ib_S1_P5E.1_K5.1_C5.1_H5.1_[G2T]_A5.1_[A7T]_F5.1_T5.1] showed a Kd of over 2300 nM.
